Assay results taken from patent US20260273085A1 (HANSOH BIO, published 2026).

Tests used:
[1] = biological target: human CDH17 as originally expressed on cancer cells (AsPC1, GP2d and other CDH17 expressing cell lines) (human) (UniProt Q12864); assay: flow cytometry on AsPC1 cells, Alexa Fluor 647 labelled antibody
[2] = biological target: human CDH17 as originally expressed on cancer cells (AsPC1, GP2d and other CDH17 expressing cell lines) (human, UniProt Q12864 23-832); assay: cell-based or functional assay
[3] = biological target: T1, cynomolgus CDH17-His tag (Acro Biosystems, catalog number CA7-C52H4) (cynomolgus, UniProt A0A2K5X8I8 31-795); assay: BLI (Octet Red 384), antibody captured on AHC biosensor, antigen 200 nM to 3.1 nM
T1 construct: Bought protein; also called cCDH17; cynomolgus CDH17 protein; not shown: His tag
Method: (§1) The affinity between CDH17 antibodies and CDH17 antigens and homologues was determined by Octet (Octet Red 384) instrument. Anti-hIgG Fc Capture (AHC) Biosensors were selected, and the sensors were balanced with buffer solution for 10 min. Subsequently, sensors were dipped into the wells containing 1 μg/ml of CDH17 lead antibodies to load onto the probes. The excess unbound antibodies were washed off. The antigen binding was performed in the wells containing serially diluted human CDH17-His tag (Sino biological, catalog number 11360-H08H), cynomolgus CDH17-His tag (Acro Biosystems, catalog number CA7-C52H4), homologs human CDH6-His tag (Acro Biosystems, catalog number CA6-H5229) and human CDH16-His tag (Sino biological, catalog number 10915-H08H), with concentration ranging from 200 nM to 3.1 nM, for 5 min. Then probes were dipped into wells containing renewed buffer to initiate the dissociation for another 15 min.

[4] = biological target: T2, human CDH6-His tag (Acro Biosystems, catalog number CA6-H5229) (human, UniProt P55285 54-615); assay: BLI (Octet Red 384), antibody captured on AHC biosensor
T2 construct: Bought protein; also called hCDH6; not shown: His tag
T2 sequence (looked up): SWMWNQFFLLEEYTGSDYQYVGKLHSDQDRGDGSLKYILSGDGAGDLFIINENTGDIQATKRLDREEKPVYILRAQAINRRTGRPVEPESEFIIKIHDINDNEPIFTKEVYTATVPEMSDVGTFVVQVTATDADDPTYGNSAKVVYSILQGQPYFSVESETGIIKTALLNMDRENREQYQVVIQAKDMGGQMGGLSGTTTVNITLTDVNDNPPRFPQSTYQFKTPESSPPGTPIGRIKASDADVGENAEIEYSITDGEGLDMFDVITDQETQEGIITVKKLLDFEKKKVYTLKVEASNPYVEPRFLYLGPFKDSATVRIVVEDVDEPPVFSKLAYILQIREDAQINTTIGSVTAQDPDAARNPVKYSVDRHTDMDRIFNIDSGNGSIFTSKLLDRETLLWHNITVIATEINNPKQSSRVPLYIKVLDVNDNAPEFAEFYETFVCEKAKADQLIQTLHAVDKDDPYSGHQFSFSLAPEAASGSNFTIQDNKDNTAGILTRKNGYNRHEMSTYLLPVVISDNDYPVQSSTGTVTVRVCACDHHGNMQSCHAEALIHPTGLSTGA
Method: as §1

[5] = biological target: T3, human CDH16-His tag (Sino biological, catalog number 10915-H08H) (human, UniProt O75309 19-786); assay: as above
T3 construct: Bought protein; also called hCDH16; not shown: His tag
T3 sequence (looked up): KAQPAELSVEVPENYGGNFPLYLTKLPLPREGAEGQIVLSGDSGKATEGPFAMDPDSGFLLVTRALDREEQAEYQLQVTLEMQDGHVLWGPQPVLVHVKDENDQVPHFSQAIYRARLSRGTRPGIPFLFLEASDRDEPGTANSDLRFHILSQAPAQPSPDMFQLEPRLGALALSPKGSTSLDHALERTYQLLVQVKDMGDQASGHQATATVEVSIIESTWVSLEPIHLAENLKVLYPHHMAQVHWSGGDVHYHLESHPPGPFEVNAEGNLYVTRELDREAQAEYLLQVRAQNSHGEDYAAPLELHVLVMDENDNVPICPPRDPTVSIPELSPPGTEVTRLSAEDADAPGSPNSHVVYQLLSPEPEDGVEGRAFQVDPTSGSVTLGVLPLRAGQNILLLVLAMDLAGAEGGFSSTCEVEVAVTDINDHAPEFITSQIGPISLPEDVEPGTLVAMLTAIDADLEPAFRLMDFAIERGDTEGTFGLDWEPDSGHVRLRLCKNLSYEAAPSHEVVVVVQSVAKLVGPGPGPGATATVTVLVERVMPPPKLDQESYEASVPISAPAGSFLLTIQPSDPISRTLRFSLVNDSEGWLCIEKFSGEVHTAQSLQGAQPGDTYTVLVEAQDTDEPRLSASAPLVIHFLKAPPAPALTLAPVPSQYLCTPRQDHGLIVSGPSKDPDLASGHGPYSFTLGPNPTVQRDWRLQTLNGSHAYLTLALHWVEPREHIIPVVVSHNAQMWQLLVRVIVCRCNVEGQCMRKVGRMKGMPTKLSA
Method: as §1

T1 sequence (A0A2K5X8I8 entry or part of it, form in doubt): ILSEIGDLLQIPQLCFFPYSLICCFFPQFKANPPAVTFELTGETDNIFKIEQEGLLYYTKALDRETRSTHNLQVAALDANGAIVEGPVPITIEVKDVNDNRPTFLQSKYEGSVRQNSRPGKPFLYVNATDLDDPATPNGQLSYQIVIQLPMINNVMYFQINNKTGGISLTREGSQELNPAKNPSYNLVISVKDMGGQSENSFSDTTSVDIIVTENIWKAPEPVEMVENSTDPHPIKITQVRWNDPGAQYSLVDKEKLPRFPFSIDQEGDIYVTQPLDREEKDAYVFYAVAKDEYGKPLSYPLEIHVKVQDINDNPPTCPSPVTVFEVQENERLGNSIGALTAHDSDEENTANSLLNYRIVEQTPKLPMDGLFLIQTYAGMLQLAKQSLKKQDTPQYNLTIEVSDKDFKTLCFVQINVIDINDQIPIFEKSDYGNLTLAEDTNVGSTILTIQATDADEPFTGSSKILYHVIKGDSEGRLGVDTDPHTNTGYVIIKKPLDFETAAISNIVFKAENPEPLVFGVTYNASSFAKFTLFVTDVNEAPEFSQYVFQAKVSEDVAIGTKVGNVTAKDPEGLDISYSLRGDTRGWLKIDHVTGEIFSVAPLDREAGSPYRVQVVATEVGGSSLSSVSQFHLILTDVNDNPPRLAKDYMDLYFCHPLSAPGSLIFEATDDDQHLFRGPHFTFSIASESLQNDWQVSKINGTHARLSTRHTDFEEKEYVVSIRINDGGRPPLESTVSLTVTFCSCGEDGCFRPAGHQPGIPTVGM

| Molecule | IC50 of indirect killing assay (internalization) in AsPC1 cells, complex with Fab anti-human IgG Fc-MMAF [2] [nM] | further results |
| --- | --- | --- |
| HBMAB-81, reformatted mAb with the CDH17 binding arm from bispecific antibody BI 905771 and human IgG1 backbone | – | EC80 [1]: 0.97 nM |
| 1H10 anti-CDH17 recombinant antibody (human IgG1) (antibody, V domains shown) VH: QVQLVESGGGVVQPGRSLRLSCVASGFTFSSYGMHWVRQAPGKGLEWVTFIWYDGSNKNYADSVKGRFTISRDNSKNTLNLQMNSLRVEDTAVYYCARDRYSSGWDVFDYWGQGTLVTVSS VL: DIQMTQSPSSVSASVGDRVTITCRASQDISSWLAWYQQQPGKAPKLQIYAASSLQSGVPSRFSGSGSGTDFTLTISSLQPEDFATYYCQQAKSFPPTFGQGTKVEIKR | 0.19 | – |
| 2F9 anti-CDH17 recombinant antibody (human IgG1) (antibody, V domains shown) VH: EVQLVESGGGVVRPGGSLRLSCAASGFTFDDYGMSWVRQAPGKGLEWVSGLSWNGGNTYYADSVKGRFTISRDNAKNSLYLQMNSLRAEDTALYYCARGSRYNWNYDAFDIWGQGTLVTVSS VL: DIQMTQSPSSLSASIGDRVTITCRASQGIRNALGWYQQKPGKAPKRLIYAASNLQSGVPSRFSGSGSGTEFTLTISSLQPEDFATYYCLQHNSYPFTFGPGTKVEIKR | 0.14 | – |
| 9E2 anti-CDH17 recombinant antibody (human IgG1) (antibody, V domains shown) VH: EVQLVESGGGVVRPGGSLRLSCAASGFTFDNYGMSWVRQAPGKGLEWVSGINWNGGSTYYADSVRGRFTISRDNAKNSLYLQMNSLRAEDTALYYCARGSRYNWSYDAFDIWGQGTLVTVSS VL: DIQMTQSPSSLSASVGDRVTITCRASQGVRNALGWYQQKPGKAPKRLIYAASSLQSGVPSRFSGSGSGTEFTLTISSLQPEDFATYYCLQHNSYPFTFGPGTKVEIKR | 0.15 | – |
| 4F9 anti-CDH17 recombinant antibody (human IgG1) (antibody, V domains shown) VH: QVQLQESGPGLVKPSGTLSLTCAVSGGSISSSNWWSWVRQPPGKGLEWIGEIYHSGSTSYNPSLKSRVTISVDKSKNQFSLKLSSVTAADTAVYYCARNDWGFPLDCWGQGTLVTVSS VL: DIQMTQSPSSLSASVGDRVTITCRASQSISSYLNWYQQKPGKAPKLLIYAASSLQSGVPSRFSGSGSGTHFTLTISSLQPEDFATYYCQQSHNIPITFGQGTRLEIKR | 0.29 | – |
| 10E11 anti-CDH17 recombinant antibody (human IgG1) (antibody, V domains shown, Recombinant human IgG1 / kappa, expressed in CHO or ExpiCHO-S cells) VH: EVQLVQSGTEVKKPGESLKISCKDSGYRFSSYWIGWVRQMPGKGLEWMGIIYPGDSDTRYSPSFQGQVTISADKSISTAYLQWRSLKASDTAMYYCARRGWVNYFDYWGQGTLVTVSS VL: DIQMTQSPSSVSASVGDRVTITCRASQGISNWLGWYQQKPGKAPKLLIYAASSLQSGVPSRFSGSGSGTDFTLTISSLQPEDFATYYCQQANSFPLTFGGGTKVEIKR | 0.08 | Kd [3]: 15 nM; koff [3]: 0.0012 s⁻¹; kon [3]: 80000 M⁻¹ s⁻¹; binding result [4]: no binding (tested: 200 nM highest antigen concentration); binding result [5]: no binding (tested: 200 nM highest antigen concentration) |
| 13C7 anti-CDH17 recombinant antibody (human IgG1) (antibody, V domains shown) VH: QITLKESGPTLVKPTQTLTLTCTFSGFSLSTSGVGVGWIRQPPGKALEWLALIYWNDDKRYRPSLKNRLTITKDTSKNQVVLTMTNMDPVDTATYYCTHYGVTAPFYNWFDPWGQGTLVTVSS VL: DIQMTQSPSSLSASVGDRVTITCRASQSITSYLNWYQQKPGKAPKLLIYAASSLQSGVPSRFSGSGSGTDFTLTISSLQPEDFATYYCQRSYSTLTFGGGTKVEIKR | 0.09 | – |
| 14B12 anti-CDH17 recombinant antibody (human IgG1) (antibody, V domains shown, Recombinant human IgG1 / kappa, expressed in CHO or ExpiCHO-S cells) VH: QVQLQESGPGLVKPSETLSLTCTVSGGSINTYYRSWIRQPPGKGLEWIGYIYYSGNTNYNPSLKSRVTISADTSKNQFSLNLISVTAADTAMYYCARAQYGEEAFDIWGQGTLVTVSS VL: DIQMTQSPSSLSASVGDRVTITCRASQSITTYLNWYQQKPGKAPQLLIFAASRLQTGVPSRFSGSGSGTDFTLTISSLLPGDFATYYCQQSYNTPPTFGGGTKVEIKR | 0.09 | binding result [4]: no binding (tested: 200 nM highest antigen concentration); binding result [5]: no binding (tested: 200 nM highest antigen concentration) |
| 15A4 anti-CDH17 recombinant antibody (human IgG1) (antibody, V domains shown) VH: QVQLVESGGGVVQPGRSLRLSCAASGFNFSSYGMHWVRQAPGKGLEWVAFVWYDGSNQNYADSVKGRFTISRDNSNNTLYLQMNSLRAEDTAVYYCARDRYSSGWDVFDYWGQGTLVTVSS VL: DIQMTQSPSSVSASVGDRVTITCRASQGISSWLAWYQQKPGKAPKLLIFAASSLQSGVPSRFSGSGSGTGFTLTISSLQPEDFATYYCQQAKSFPPTFGQGTKVEIKR | 1.99 | – |
| 17F3 anti-CDH17 recombinant antibody (human IgG1) (antibody, V domains shown) VH: EVQLVESGGGLVKSGGSLRLSCAASGFTFSSYSLKWVRQAPGKGLEWVSSISSSSGYIYYADSVKGRFTISRDNAKNSLYLQMNSLRAEDTAMYYCARAVSTIAARPGYYYYYMDVWGKGTLVTVSS VL: DIQMTQSPSSVSASIGDRVTITCRASQDISTWFAWYQQKPGKAPKLLIYAASTLRSGVPSRFSGSGSGTDFTLTINSLQPEDFATYYCQQANSFPLTFGGGTKVEIKR | 0.08 | – |
| 19C7 anti-CDH17 recombinant antibody (human IgG1) (antibody, V domains shown) VH: QITLKESGPTLVKPTQTLTLTCTFSGISLSTGGVGVGWIRQPPGKALEWLSLIYWNDDKRYSPSLKSRLTITKDSSKNQVVLTMTNMDPVDTATYYCAHSGLAAPFYNWFDPWGQGTLVTVSS VL: DIQMTQSPSSLSASVGDRVTITCRASQSISNYLNWYQLKPGNAPKLLIFAASSLQSGVPSRFSGSGSGTDFTLTISSLQPEDFATYFCQRSYSTLTFGGGTKVEIKR | 0.09 | – |
